B1: Transcriptional regulator ERG, residues 117 to 197; numbered along this chain, P11308 (parent)
chain: NMTTNERRVIVPADPTLWSTDHVRQWLEWAVKEYGLPDVNILLFQNIDGKELCKMTKDDFQRLTPSYNADILLSHLHYLRE

Variants of: B1
Assay: abundance fitness (aPCA) (normalised: wild type 0, dead -1); higher = more abundant; growth selection in yeast, the domain comes from the species named
Settings: Homo sapiens

Abundance fitness: each site, then its substitutions
G35: K 0.044; T 0.061; I -0.021; R -0.027; C -0.057; P -0.302; E 0.009; V -0.05; S 0.012; Q 0.05; F -0.276; H 0.088; W -0.273; D 0.063; A 0.03; L -0.069; M -0.047
L36: P -1.08; V -0.225; N -0.75; G -0.563; M -0.038; T -0.357; Q -0.67; F -0.038; Y -0.375; S -0.829; E -0.889; I -0.066; W -0.253; R -0.81; A -0.476; C 0.014; D -0.426
F44: G -0.382; R -0.278; I -0.497; H -0.407; D -0.067; Q -0.181; C -0.215; T -0.297; A -0.195; S -0.275; L -0.217; P -0.435; W -0.072; N -0.067; V -0.523; Y -0.081
E51: G 0.022; K -0.025; M -0.054; A 0.02; C -0.127; I -0.319; F -0.277; H -0.113; D -0.087
D48: S -0.052; T 0.033; F -0.399; M -0.412; W -0.969; R -0.183; G -0.114; K -0.123; Q -0.227; C -0.075; P -0.295; N 0.022; L -0.521; Y -1; V -0.378; H -0.282; E -0.076
N46: D 0.023; H -0.063; M -0.255; S 0.012; T -0.035; K -0.104; Y -0.082; V -0.617; W -0.201; I -0.379; E 0.039; L -0.251; P -0.244; R -0.106; F -0.133; Q -0.144; C -0.066
V31: G -0.164; R -0.054; N -0.218; K 0.06; T 0.001; H -0.14; M -0.003; S -0.015; I 0.02; P -0.649; Q -0.086; W -0.439
I47: A -0.521; S -0.751; V 0.006; P -0.99; T -0.242; F -0.176; D -0.789; N -0.492; Y -0.022; C -0.163; L -0.046; E -0.712; R -0.609; W -0.653; Q -1.08; H -0.251; K -0.255
L43: I -0.217; C 0.08; G -0.019; V -0.083; Q 0.047; K 0.071; M -0.063; P -0.128; F -0.105; D -0.006; R -0.029; Y -0.082; T 0.07; W -0.079; S 0.041; H 0.027; N -0.033
P37: F -0.143; D -0.027; T 0.072; L 0.001; S 0.08; I 0.106; K 0.054; E 0.018; C 0.017; R 0.014; V -0.024; M 0.001; W -0.123; Y -0.018; H 0.016; N 0.072; Q -0.044; A 0.022; G -0.026
V39: P -0.295; R -0.278; S -0.116; T -0.002; C 0.005; A -0.169; L 0.066; Y -0.252; K -0.242; N -0.144; F 0.04; I 0.007; W -0.334; D -0.241; M -0.045; Q -0.219
I41: A -0.145; M -0.061; H -0.075; K 0.012; W -0.159; P -0.024; N -0.136; F 0; T -0.034; V -0.021; R -0.187; S -0.128; L -0.027; Y -0.057; E -0.053; C -0.034; G -0.097; Q -0.112; D -0.157
Q45: R -0.055; I -0.235; K 0.042; H 0.07; S -0.005; L -0.241; E 0.045; P -0.407; V -0.154; Y -0.113; T -0.132; G -0.042; M -0.083; W -0.292; D -0.096; F -0.274; C -0.234
G49: I -1.4; L -0.833; W -1.04; T -1.11; N -1.08; K -0.945; D -0.874; S -0.737; Y -1.14; Q -0.836; V -0.895; R -0.8; M -0.678; A -0.837; F -0.816
E33: M -0.105; G -0.429; W -0.169; P -0.929; N -0.059; C -0.307; I -0.193; S -0.035; F -0.034; T -0.15; K 0.029; Y -0.151; H -0.108; D 0.002
L42: C -0.051; G 0.033; I -0.112; D -0.068; A 0.014; W -0.024; E -0.001; F -0.154; S 0.012; V -0.027; N 0.078; K -0.008; T -0.042; Y -0.018; R 0.056
N40: P -0.153; G -0.4; H -0.292; F -0.419; I -0.317; L -0.179; A -0.201; D 0.072; Q -0.165; S -0.236; T -0.213; C -0.172; R -0.255; Y -0.284; M -0.413
K32: Q -0.109; M 0.003; G -0.103; R -0.052; S -0.111; D -0.028; A -0.103; P -0.468; H -0.037; N 0.05; I 0.005; W -0.158; Y -0.198; E 0.053; V -0.036; F -0.166; T -0.044
Y34: K -0.056; S -0.278; R -0.211; C -0.186; H -0.06; F -0.021; T -0.449; P -0.523; G -0.254; D -0.326; E -0.2; I -0.171; Q -0.28; V -0.341; W -0.105
K50: A 0.044; V -0.009; H -0.098; W -0.05; G -0.089; I -0.1; Q -0.022; C 0.015; T 0.014; E 0.035; P -0.011; R -0.032; L -0.054; D -0.004; N 0.032
D38: N -0.011; Q -0.067; K -0.091; H -0.049; A -0.217; Y -0.293; E -0.094; F -0.541; G -0.004; P 0.046; S -0.054; R -0.146; C -0.289; L -0.756; W -0.398; M -0.317; T -0.052; V -0.755

Source: the Human Domainome abundance scans (Beltran et al. 2025)
